Experimental data taken from paper PMC6723090.

Molecular target: synthetic CDR1 peptide … with N-terminal Biotin-[TTDS] linker (human)
Assay: affinity purification with mass spectrometry; spike-in: 2 ug recombinant HTRA2 added to 5 mg homogenized pig retina; beads with CDR peptide, scrambled peptide or biotin only (n = 3); eluates on 1-D SDS-PAGE, gel region above 49 kDa digested with trypsin, LC-MS/MS intensity of HTRA2

- LC-MS intensity of recovered HTRA2: 4.2e+08
Substance: recombinant HTRA2/Omi (Human Serine Protease, cat. no. C760) (from UniProt O43464 32-458) (enzyme)
